{"source": "IntAct's records for PubMed 23532844", "parents": {"B1": {"name": "Jouberin (Homo sapiens), Q8N157 (parent)", "chain": "MPTAESEAKVKTKVRFEELLKTHSDLMREKKKLKKKLVRSEENISPDTIRSNLHYMKETTSDDPDTIRSNLPHIKETTSDDVSAANTNNLKKSTRVTKNKLRNTQLATENPNGDASVEEDKQGKPNKKVIKTVPQLTTQDLKPETPENKVDSTHQKTHTKPQPGVDHQKSEKANEGREETDLEEDEELMQAYQCHVTEEMAKEIKRKIRKKLKEQLTYFPSDTLFHDDKLSSEKRKKKKEVPVFSKAETSTLTISGDTVEGEQKKESSVRSVSSDSHQDDEISSMEQSTEDSMQDDTKPKPKKTKKKTKAVADNNEDVDGDGVHEITSRDSPVYPKCLLDDDLVLGVYIHRTDRLKSDFMISHPMVKIHVVDEHTGQYVKKDDSGRPVSSYYEKENVDYILPIMTQPYDFKQLKSRLPEWEEQIVFNENFPYLLRGSDESPKVILFFEILDFLSVDEIKNNSEVQNQECGFRKIAWAFLKLLGANGNANINSKLRLQLYYPPTKPRSPLSVVEAFEWWSKCPRNHYPSTLYVTVRGLKVPDCIKPSYRSMMALQEEKGKPVHCERHHESSSVDTEPGLEESKEVIKWKRLPGQACRIPNKHLFSLNAGERGCFCLDFSHNGRILAAACASRDGYPIILYEIPSGRFMRELCGHLNIIYDLSWSKDDHYILTSSSDGTARIWKNEINNTNTFRVLPHPSFVYTAKFHPAVRELVVTGCYDSMIRIWKVEMREDSAILVRQFDVHKSFINSLCFDTEGHHMYSGDCTGVIVVWNTYVKINDLEHSVHHWTINKEIKETEFKGIPISYLEIHPNGKRLLIHTKDSTLRIMDLRILVARKFVGAANYREKIHSTLTPCGTFLFAGSEDGIVYVWNPETGEQVAMYSDLPFKSPIRDISYHPFENMVAFCAFGQNEPILLYIYDFHVAQQEAEMFKRYNGTFPLPGIHQSQDALCTCPKLPHQGSFQIDEFVHTESSSTKMQLVKQRLETVTEVIRSCAAKVNKNLSFTSPPAVSSQQSKLKQSNMLTAQEILHQFGFTQTGIISIERKPCNHQVDTAPTVVALYDYTANRSDELTIHRGDIIRVFFKDNEDWWYGSIGKGQEGYFPANHVASETLYQELPPEIKERSPPLSPEEKTKIEKSPAPQKQSINKNKSQDFRLGSESMTHSEMRKEQSHEDQGHIMDTRMRKNKQAGRKVTLIE", "partner": "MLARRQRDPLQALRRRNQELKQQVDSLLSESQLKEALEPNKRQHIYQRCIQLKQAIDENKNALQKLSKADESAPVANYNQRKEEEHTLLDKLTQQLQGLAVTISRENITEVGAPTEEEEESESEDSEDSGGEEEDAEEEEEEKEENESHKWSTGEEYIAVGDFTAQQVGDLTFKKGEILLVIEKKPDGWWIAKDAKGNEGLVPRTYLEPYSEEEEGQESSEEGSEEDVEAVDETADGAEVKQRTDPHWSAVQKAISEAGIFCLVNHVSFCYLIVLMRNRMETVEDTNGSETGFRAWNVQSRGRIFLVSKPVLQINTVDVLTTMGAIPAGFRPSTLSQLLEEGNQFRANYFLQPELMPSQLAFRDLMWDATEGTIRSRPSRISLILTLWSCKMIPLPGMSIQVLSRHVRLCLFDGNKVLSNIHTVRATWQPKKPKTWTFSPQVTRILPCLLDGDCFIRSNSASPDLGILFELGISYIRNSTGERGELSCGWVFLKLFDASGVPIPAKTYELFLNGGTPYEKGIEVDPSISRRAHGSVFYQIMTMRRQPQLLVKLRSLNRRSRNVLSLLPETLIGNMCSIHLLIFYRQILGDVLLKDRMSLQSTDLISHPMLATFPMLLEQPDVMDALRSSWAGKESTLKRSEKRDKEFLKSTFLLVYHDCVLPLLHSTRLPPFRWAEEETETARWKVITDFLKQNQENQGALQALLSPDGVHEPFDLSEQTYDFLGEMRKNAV"}, "B2": {"name": "Jouberin (Homo sapiens), Q8N157 (parent)", "chain": "B1 chain"}}}
{"variants_of": "B1", "conditions": "with nphp1_human NPHP1, O15259"}
{"variant": "V443D", "effect of a mutation on the interaction": "disrupting interaction"}
{"variants_of": "B2", "conditions": "with hap1_human HAP1, P54257"}
{"variant": "V443D", "effect of a mutation on the interaction": "decreasing interaction"}
